Experimental data taken from patent publication US20170369569A1 (KAO, published 2017).
Ends that are not written are not given here.

Experiments:
active GIP, GIP(1-42) = target: T1, active GIP, GIP(1-42) (human); experiment: sandwich ELISA, anti-total GIP capture antibody, biotinylated anti-active GIP antibody (1 µg/mL) as detection, GIP 8.2 to 2000 pg/mL
T1 construct: also called human active GIP
T1 peptide: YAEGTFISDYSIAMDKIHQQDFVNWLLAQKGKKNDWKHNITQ
Description: (§1) The reactivity of the monoclonal antibody obtained in Example 1 with active GIP was confirmed by ELISA. The amino group of the anti-active GIP monoclonal antibody was biotinylated using a NH₂ group biotinylation kit (manufactured by Dojindo Laboratories). ELISA was conducted using 1 μg/mL prepared biotinylated anti-active GIP monoclonal antibody instead of a detection antibody ‘GIP detection antibody’ (biotinylated anti-total GIP monoclonal antibody) included in Human (total) GIP ELISA kit (manufactured by Merck Millipore). Six 4-fold serial dilutions (8.2 to 2000 pg/mL) were prepared with a 2000 pg/mL solution of GIP(1-42) or GIP(3-42) as the highest concentration. The capture antibody used was an anti-total GIP monoclonal antibody (included in the Human GIP (total) ELISA kit manufactured by Merck Millipore). The detection antibody used was the biotinylated anti-active GIP monoclonal antibody. A sandwich ELISA system containing a peroxidase-streptavidin conjugate was used in detection. GIP concentrations were plotted on the X axis against absorbance of 450 nm to 590 nm on the Y axis to prepare a calibration curve (FIG. 1).

[1] = target: T2, PEGylated N-terminal 15 amino acids of active GIP (GIP(1-15)), antigen (1) for measurement (human, also: PEGylated, site not given here); experiment: ELISA on immobilized antigen (1 µg/mL), hybridoma culture supernatant, HRP-labeled anti-mouse Ig secondary antibody
T2 construct: also called PEGylated GIP(1-15)
T2 peptide: YAEGTFISDYSIAMD
Description: (§2) The antigens (1) and (2) for measurement were each diluted to 1 μg/mL with PBS(−) and immobilized onto plates.

[2] = target: T3, GIP (1-10) synthetic peptide; experiment: direct ELISA on immobilized peptide (1 µg/mL), biotinylated antibody, peroxidase-streptavidin
T3 construct: Free NH2 and COOH termini as printed
T3 peptide: H-YAEGTFISDY-OH
Description: (§3) The synthesized 6 peptides were each diluted to 1 μg/mL with PBS(−) and immobilized onto 96-well plates. ELISA was conducted using the biotinylated anti-active GIP monoclonal antibody and a peroxidase-streptavidin conjugate for detection.

[3] = target: T4, GIP (1-9) synthetic peptide; experiment: as above
T4 peptide: H-YAEGTFISD-OH
Description: as §3

[4] = target: T5, GIP(1-8) synthetic peptide; experiment: as above
T5 peptide: H-YAEGTFIS-OH
Description: as §3

[5] = target: T6, GIP(1-7) synthetic peptide; experiment: direct ELISA on immobilized peptide, biotinylated antibody, peroxidase-streptavidin
T6 peptide: H-YAEGTFI-OH
Description: as §3

[6] = target: T7, GIP(1-6) synthetic peptide; experiment: as above
T7 peptide: H-YAEGTF-OH
Description: as §3

[7] = target: T8, GIP(1-6)+GIP nonspecific 4aa (random 4aa) synthetic peptide; experiment: as above
T8 construct: also called GIP(1-6)+random 4aa
T8 peptide: H-YAEGTFVNLV-OH
Description: as §3

[8] = target: T9, PEGylated N-terminal 13 amino acids of nonactive GIP (GIP(3-15)), antigen (2) for measurement (human, also: PEGylated, site not given here); experiment: ELISA on immobilized antigen, hybridoma culture supernatant, HRP-labeled anti-mouse Ig secondary antibody
T9 construct: also called PEGylated GIP(3-15)
T9 peptide: EGTFISDYSIAMD
Description: as §2

nonactive GIP, GIP(3-42) = target: T10, nonactive GIP, GIP(3-42) (human); experiment: sandwich ELISA, anti-total GIP capture antibody, biotinylated anti-active GIP antibody (1 µg/mL) as detection
T10 peptide: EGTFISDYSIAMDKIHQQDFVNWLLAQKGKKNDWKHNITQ
Description: as §1

binding result (active GIP, GIP(1-42)): binds
binding result [1]: binds
binding result [2]: binds
binding result [3]: binds
binding result [4]: binds
binding result (nonactive GIP, GIP(3-42)): no binding (tested: 8.2 to 2000 pg/mL)
B1: anti-active GIP monoclonal antibody produced from hybridoma 9B9H5-B9 line (antibody, V domains shown)
VH: QVQLQQPGAELVKPGASVKLSCKASGYTFTSFWMHWVIQRPGQGLEWIGEMNPSDGRTHFNEKFKTKATLTIDTSSNTAYMELNSLTSEDSAVYYCARRMEDWGQGTLVTVSA
VL: DIKMTQSPSSMYASLGERVTITCKASQDINSYLGWFQQKPGKSPKTLIYGANRLVDGVPSRFSGSGSGQDYSLTISSLEYDDMGIYYCLQYDEFPLTFGAGTKLELKR
notes: Mouse (BALB/c) hybridoma monoclonal antibody, purified on protein A. It was amplified with a mouse IgG H chain-specific primer; also called biotinylated anti-active GIP monoclonal antibody; anti-active GIP antibody of the present invention
binding result [5]: no binding (tested: peptide coated at 1 µg/mL)
binding result [6]: no binding (tested: peptide coated at 1 µg/mL)
binding result [7]: no binding (tested: peptide coated at 1 µg/mL)
binding result [8]: no binding (tested: antigen coated at 1 µg/mL)
